From patent publication US9675675B2, “Microneedle device having a peptide therapeutic agent and an amino acid, methods of making and using the same” (3M INNOVATIVE PROPERTIES COMPANY, priority 2011, dated 2017)

Legend:
[1] = Storage stability of lysozyme in dried coating on microneedle arrays, HPLC content; type: physicochemical; conditions: 10 mg/mL lysozyme in PBS; for Percent of Initial Lysozyme Content in the Coating, Initial: freshly coated reference standard, about 4° C.; for Percent of Initial Lysozyme Content in the Coating, Day 1 / Percent of Initial Lysozyme Content in the Coating, Day 3 / Percent of Initial Lysozyme Content in the Coating, Day 7 / Percent of Initial Lysozyme Content in the Coating, Day 14: stored 40° C., 96% RH
Experimental: (§1) The protein or polypeptide content in the formulation coated on the microneedle arrays was determined using an Agilent 1100 HPLC system (Agilent Technologies, Wilmington, Del.) equipped with a binary pump, well-plated thermostated autosampler, thermostated column compartment, and a diode array UV detector. A Zorbax 300SB-C8 column (Agilent Technologies, Wilmington, Del.) having a 5 μm particle size and 2.1×150 mm inner diameter was used for the separations. The column was maintained at 50° C. The mobile phase consisted of two eluents. Eluent A was 0.1% TFA (trifluoroacetic acid) in water and eluent B was 0.1% TFA in acetonitrile (Spectrum Chemical, New Brunswick, N.J.). A linear gradient from 80/20 to 50/50 (A/B) was applied over 30 minutes. The flow rate was 0.4 mL/minute and the UV detection wavelength was set at 214 nm. The total run time was 34 minutes and the sample injection volume was 15 μL.
A sample formulation containing 10 mg/mL of lysozyme and 12 mg/mL of L-histidine monohydrochloride (His-HCl) in PBS was prepared. The pH of the sample formulation was 5.5-6.0. A control formulation was also prepared containing 10 mg/mL of lysozyme in PBS. […] The pH of the control formulation was 6.5. Microneedle arrays were coated with either the sample or the control formulation. The coating was applied by dropwise addition of 50 μL of the formulation to the portion of the array defined by the octagon shaped pattern of microneedles. The flood coated arrays (both sample and control formulation coated) were dried in an oven at 35° C. for about 15 hours.
After drying, the coated arrays were placed in a storage chamber that was maintained at 40° C. and 96% relative humidity (RH). The lysozyme content of the coated arrays was determined following storage in the chamber for 1, 3, 7, and 14 days. At the designated time point, an array was taken from the chamber and washed with PBS (2 mL) to remove the coating from the array. An aliquot of the resulting wash solution was analyzed for lysozyme content using the HPLC method described above. Reference standards were prepared by measuring the lysozyme content of freshly coated arrays (both sample and control formulation coated). The arrays used as reference standards were stored in a refrigerator at about 4° C. and analyzed within one day of being prepared. The percentage of undegraded lysozyme remaining in the coating at each time point was determined by measuring the peak area for lysozyme in the selected coating and dividing it by the peak area measured for lysozyme in the corresponding reference standard.
The same procedure as described in Example 7 was used with the exception that the sample formulation contained 12 mg/mL of L-arginine hydrochloride, instead of L-histidine monohydrochloride. The pH of the sample formulation was 6.5.

[2] = Storage stability of insulin in dried coating on microneedle arrays, HPLC content; type: physicochemical; conditions: 5 mg/mL insulin in 0.1 N acetic acid, pH 3.0-3.5; for Percent of Initial Insulin Content in the Coating, Initial: freshly coated reference standard, about 4° C.; for Percent of Initial Insulin Content in the Coating, Day 1 / Percent of Initial Insulin Content in the Coating, Day 3 / Percent of Initial Insulin Content in the Coating, Day 7 / Percent of Initial Insulin Content in the Coating, Day 14: stored 40° C., 96% RH
Experimental: as §1
The pH of the sample formulation was 3.0-3.5. […] The pH of the control formulation was 3.0-3.5. Microneedle arrays were coated with either the sample or the control formulation. The coating was applied by dropwise addition of 50 μL of the formulation to the portion of the array defined by the octagon shaped pattern of microneedles. The flood coated arrays (both sample and control formulation coated) were dried in an oven at 35° C. for about 15 hours.
After drying, the coated arrays were placed in a storage chamber that was maintained at 40° C. and 96% relative humidity (RH). […] At the designated time point, an array was taken from the chamber and washed with 0.1 N acetic acid (1 mL) to remove the coating from the array. […] The arrays used as reference standards were stored in a refrigerator at about 4° C. and analyzed within one day of being prepared.
[…] The pH of the sample formulation was 3.0-3.5.

[3] = Amino acid: L-Arginine (12 mg/mL Arg-HCl), pH 6.5
[4] = Amino acid: L-Histidine (12 mg/mL His-HCl), pH 5.5-6.0
[5] = Amino acid: None (control), pH 6.5
[6] = Amino acid: L-Arginine (12 mg/mL Arg-HCl)
[7] = Amino acid: L-Histidine (12 mg/mL His-HCl)

## lysozyme
[1]; [3]
  Percent of Initial Lysozyme Content in the Coating, Initial: 100%
  Percent of Initial Lysozyme Content in the Coating, Day 1: 52.6%
  Percent of Initial Lysozyme Content in the Coating, Day 3: 33.1%
  Percent of Initial Lysozyme Content in the Coating, Day 7: 22.4%
  Percent of Initial Lysozyme Content in the Coating, Day 14: 23.0%
[1]; [4]
  Percent of Initial Lysozyme Content in the Coating, Initial: 100%
  Percent of Initial Lysozyme Content in the Coating, Day 1: 100.0%
  Percent of Initial Lysozyme Content in the Coating, Day 3: 80.6%
  Percent of Initial Lysozyme Content in the Coating, Day 7: 60.1%
  Percent of Initial Lysozyme Content in the Coating, Day 14: 53.3%
[1]; [5]
  Percent of Initial Lysozyme Content in the Coating, Initial: 100%
  Percent of Initial Lysozyme Content in the Coating, Day 1: 26.9%
  Percent of Initial Lysozyme Content in the Coating, Day 3: 4.4%
  Percent of Initial Lysozyme Content in the Coating, Day 7: 1.9%
  Percent of Initial Lysozyme Content in the Coating, Day 14: 1.9%

## Insulin
[2]; [6]
  Percent of Initial Insulin Content in the Coating, Initial: 100%
  Percent of Initial Insulin Content in the Coating, Day 1: 75.4%
  Percent of Initial Insulin Content in the Coating, Day 3: 45.9%
  Percent of Initial Insulin Content in the Coating, Day 7: 27.1%
[2]; [7]
  Percent of Initial Insulin Content in the Coating, Initial: 100%
  Percent of Initial Insulin Content in the Coating, Day 1: 95.3%
  Percent of Initial Insulin Content in the Coating, Day 3: 93.5%
  Percent of Initial Insulin Content in the Coating, Day 7: 79.2%
  Percent of Initial Insulin Content in the Coating, Day 14: 34.9%
[2]; Amino acid: None (control)
  Percent of Initial Insulin Content in the Coating, Initial: 100%
  Percent of Initial Insulin Content in the Coating, Day 3: 0%
  Percent of Initial Insulin Content in the Coating, Day 7: 0%
  Percent of Initial Insulin Content in the Coating, Day 14: 0%
